Experimental data: article PMC11091976, “Shorter Peptide Nucleic Acid Probes Improve Affibody-Mediated Peptide Nucleic Acid-Based Pretargeting” (ACS Pharmacology & Translational Science, 2024)
pKd: −log10 of the molar value. One block for each compound: values may come before it.

Legend:
[1] = system: HER2 xenograft mouse model; settings: in vivo; cited from earlier work
Protocol: In our recent study,[29] we introduced a second-generation of pretargeting probes featuring a common 15-mer affibody-PNA conjugate, ZHER2:343-HP15, and three complementary secondary probes of varying lengths: a 9-mer (HP16), a 12-mer (HP17), and a 15-mer (HP18). […] At 4 h postinjection, there were no significant differences in the tumor-to-kidney ratios among the three different pretargeting groups.

[2] = type: physicochemical
Protocol: Table 4 summarizes the radiochemical yield (RCY), purity, and stability test results for all ^177Lu-labeled probes in this study. […] Such radiolabeling yield necessitated purification to achieve the requisite radiochemical purity of over 95%. Purification was conducted using a NAP-5 column, eluted with 1% BSA in PBS, resulting in radiochemical purities of 99 ± 1.7% for [^177Lu]Lu-Z-HP9 and 98.5 ± 2.2% for [^177Lu]Lu-Z-HP12, respectively. […] Thus, it was essential that the label was stable, and the compound was pure. […] The RCY for the secondary probes exceeded 97%, and consequently, further purification was deemed unnecessary for in vitro and in vivo studies. Importantly, all probes labeled with ^177Lu remained stable in the presence of an excess amount of EDTA and in PBS as control after incubation at 37 °C for 1 h.
Radiolabeling of primary and secondary probes with ^177Lu was performed using a previously described method.[29] Briefly, 100 μL of 0.2 M of NH4Ac, pH 5.5 was added to 30 μg of the probe (100 μL of 0.3 mg/mL stock in NH4Ac) to provide right pH for the labeling. The mixture was heated at 95 °C for 10 min, followed by sonication for 5 min, and reheating at 95 °C for 10 min to ensure complete dissolving. […] RCY was then analyzed using iTLC developed with 0.2 M citric acid, pH 2.0. […] Samples were run in triplicates and analyzed by radio-iTLC.

[3] = target: Z-HP15; experiment: SPR off-rate screening (single-cycle kinetics), immobilized Z-HP15; type: binding; settings: primary probe HP15 (immobilized Z-HP15), 25 °C, PBS-T pH 7.4, 120 nM HP16/HP20 or 362 nM HP21/HP19, dissociation 150 min, 1:1 model, duplicates
Protocol: The stability of new pretargeting probe combinations was assessed using SPR, and duplex melting temperatures were measured with UV–vis spectroscopy. In SPR, a high concentration of the secondary probe was injected over immobilized primary agents, and the dissociation of the hybridized complexes was monitored over 150 min (see Figures 3A, S22, and Table 2).
We utilized SPR on a Biacore T200 instrument (Cytiva) to examine how secondary PNA probes (6-mer HP19, 7-mer HP21, 8-mer HP20, and 9-mer HP16) bind to primary agents. These experiments were conducted using dextran-coated CM5 sensor chips and PBS-T buffer at pH 7.4. The ligands were immobilized through a standard EDC/NHS coupling method, and the chip surface was sealed with ethanolamine. A reference surface with no primary agent was also included.
For ranking the off-rate (kd) of the secondary probes, we employed single-cycle kinetics (SCK) at 25 °C with a flow rate of 50 μL/min. […] Secondary PNA probes were injected at various concentrations, and dissociation was monitored for 10,000 s. To regenerate the chip surface, we used two 30 s injections of 10 mM glycine-HCl, pH 1.5.
All SPR experiments were performed in duplicate, and data analysis was conducted using the Biacore T200 Evaluation software version 2.0 with a 1:1 binding model.
Figure S22: Representative SPR sensorgrams of the dissociation phase of HP16 (9-mer), HP20 (8-mer), HP21 (7-mer) and HP19 […]
After injection with the secondary probe
(120 nM of HP16 and HP20 or 362 nM of HP21 and HP19) the dissociation of the formed complex was followed for 150 minutes. All experiments were done in duplicates, and the data presented is double-referenced (reference channel and buffer injection are subtracted).
(1 picture or pasted object on this page, not shown here)

[4] = target: ZHER2-HP15; settings: SPR; cited from earlier work
Protocol: Our previously published preclinical therapy studies are based on PNA probes having 15 complementary nucleobases.[26],[27] Upon hybridization, these probes form an exceptionally stable duplex with a melting temperature (Tm) in solution of 86–88 °C. In a Biacore experiment, less than 5% of the hybridized secondary PNA detached during a 17 h long dissociation phase.[20] It is likely that shorter probe pairs than the original 15-mers provide enough binding affinity and specificity to achieve an efficient pretargeted radionuclide therapy in vivo.

Compound: NC(=O)[C@H](Cc1ccc(O)cc1)NC(=O)[C@H](CCC(=O)O)NC(=O)[C@H](CCC(=O)O)NC(=O)CN(CCNC(=O)CN(CCNC(=O)CN(CCNC(=O)CN(CCNC(=O)CN(CCNC(=O)CN(CCNC(=O)CN(CCNC(=O)CN(CCNC(=O)CN(CCNC(=O)[C@H](CO)NC(=O)[C@H](CO)NC(=O)COCCOCCNC(=O)CN1CCN(CC(=O)O)CCN(CC(=O)O)CCN(CC(=O)O)CC1)C(=O)Cn1cnc2c(N)ncnc21)C(=O)Cn1cnc2c(N)ncnc21)C(=O)Cn1ccc(N)nc1=O)C(=O)Cn1cnc2c(N)ncnc21)C(=O)Cn1ccc(N)nc1=O)C(=O)Cn1ccc(N)nc1=O)C(=O)Cn1cnc2c(N)ncnc21)C(=O)Cn1cnc2c(=O)[nH]c(N)nc21)C(=O)Cn1cnc2c(=O)[nH]c(N)nc21 [[^177Lu]Lu-HP16, metal not drawn]
- kidney uptake [1]: 6 ± 1 % ID/g

Compound: NC(=O)[C@H](Cc1ccc(O)cc1)NC(=O)[C@H](CCC(=O)O)NC(=O)[C@H](CCC(=O)O)NC(=O)CN(CCNC(=O)CN(CCNC(=O)CN(CCNC(=O)CN(CCNC(=O)CN(CCNC(=O)CN(CCNC(=O)CN(CCNC(=O)CN(CCNC(=O)[C@H](CO)NC(=O)[C@H](CO)NC(=O)COCCOCCNC(=O)CN1CCN(CC(=O)O)CCN(CC(=O)O)CCN(CC(=O)O)CC1)C(=O)Cn1cnc2c(N)ncnc21)C(=O)Cn1ccc(N)nc1=O)C(=O)Cn1cnc2c(N)ncnc21)C(=O)Cn1ccc(N)nc1=O)C(=O)Cn1ccc(N)nc1=O)C(=O)Cn1cnc2c(N)ncnc21)C(=O)Cn1cnc2c(=O)[nH]c(N)nc21)C(=O)Cn1cnc2c(=O)[nH]c(N)nc21 [[^177Lu]Lu-HP20, metal not drawn]
- stability (×500 EDTA), 37 °C, 1 h [2]: 99.5 ± 0.7
- stability in PBS, 37 °C, 1 h [2]: 100 ± 0

- kd [3]: 1.2 × 10^–5 s^–1
Compound: DOTA-AEEA-SS-aacaccagg-EEY-NH2 [HP16, 9-mer secondary PNA probe with DOTA]
- pKd [4]: 9.55
- kd [4]: 1.2 × 10^–5 s^–1
